Measured values taken from PMC4108388, “The Structure of RdDddP from Roseobacter denitrificans Reveals That DMSP Lyases in the DddP-Family Are Metalloenzymes” (PLoS ONE, 2014).

Target: the molecule itself
Test: crystal structure; RdDddP crystallised in 4-4.5 M sodium chloride, 0.1 M Bis-Tris pH 6.5; space group P6(3)22, one molecule per asymmetric unit, dimer formed with a chain related by crystallographic symmetry; 2.15 Å native dataset

B1: putative DddP DMSP lyase from Roseobacter denitrificans Och 114 (enzyme, UniProt Q166H0 1-447, looked up)
chain: MNRHFNATRKIDPSRGATLGDGSPNDMNRVEIGPTQLAFAEWHTARLDLPDLAAMRRFRHRRLTDHVVARGYAGLLMFDPLNIRYATDSTNMQLWNTHNPFRATLLCADGYMVMWDYKNSPFLSEFNPLVREQRAGADLFYFDRGDKVDVAADVFANEVRILLRDHAPGLRRLAVDKVMLHGLRALQAQGFEIMDGEEVTEKARSVKGPDEIRAMRCASHACEVAVRKMEDFARSKVGDGVTCENDIWAILHSENVRRGGEWIETRLLASGPRSNPWFQECGPRVCQRNEIISFDTDLVGAYGICTDISRSWWIGDQKPRADMIYAMQHGVEHIRTNMEMLKPGVMIPELSANTHVLDAKFQKQKYGCLMHGVGLCDEWPLVAYPDHAVAGAYDYPLEPGMTLCVEALISEEGGDFSIKLEDQVLITEDGYENLTKYPFDPALMGVE
notes: putative DMSP lyase DddP (RdDddP), Roseobacter denitrificans Och 114, YP_682809; 453 residues, 51 kDa; the gene was amplified with printed primers that run from the ATG start codon to the stop codon; residues 10-444 are described in the structure; Homodimer formed by crystallographic symmetry; A few vector residues probably remain at the N-terminus after thrombin cleavage (NheI cloning in pET28); …
stoichiometry N: 2
